Test results published in the RNAGym collection of RNA variant scans (doi:10.1073/pnas.2313332121).

B1: TPR t1 (parent)
chain: GACCAAUCUGCCCUCAGAGCUCGAGAACAUCUUCGGAUGCAGAGGAGGCAGGCUUCGGUGGCGCGAUAGCGCCAACGUCCUCAACCUCCAAUGCAUCCCACCACAUGAUGAUGCCUGAAGAGCCUUGGUUUUUUG

Variants of: B1
Assay: polymerase ribozyme fitness, log enrichment relative to wild type (log ratio); higher = more active; in vitro selection for triplet polymerase activity
In short: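 Libraries of mutants in each subunit of a heterodimeric triplet polymerase ribozyme were generated by PCR and transcribed. In triplicate, each went through one in vitro selection round: annealing with biotinylated primer, partner subunit and triplets; frozen incubation at −7 °C; gel excision of extended constructs; streptavidin-bead capture; RT-PCR. Fitness, taken from Illumina sequencing of input and output libraries, is the logarithm of a genotype's enrichment over wild-type enrichment, averaged across replicates with inverse-variance weights. The logarithm is base 2, and genotypes needed ≥10 input reads and ≥1 read per output to be kept.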

In order of rising “polymerase ribozyme fitness (log ratio)” value:
1. A68U C79A C104A A111U  -8.01
2. G69A C99A  -7.72
3. A68C U78G U112A  -7.68
4. A68C C72U U78C C114G G120A C123U  -7.64
5. G69C C98A C104A C115U  -7.27
6. U67G C88U A111G U116A  -7.24
7. G69U C80G C98A U130G  -7.2
8. G69U C73G C80A  -7.09
9. G69A U81G  -6.79
10. G69A A91C U125A  -6.56
11. C70A C73U C99U G107U U109C G117U  -6.35
12. A68U U78C  -6.34
13. C70G C85A G93A C99G G110U  -6.29
14. G69C C102U A108C A111G C115U U130A  -6.19
15. C70A U92A A95U A111C G113C  -6.14
16. A68G U78A C79U U106G  -6.12
17. G69A A111U U130A  -6.09
18. C70A C80G U87A C88U C94U C123G  -6.08
19. G69C C70A G117A A121G  -6.08
20. U67A C73U C94A C104U G117U  -6.08
21. A68U G69A  -6.04
22. C70G C80A C104G C124G  -6.03
23. G69A C102A  -6.02
24. A68U C82U A91G C101G C123U G128U  -5.8
25. G69A C99U  -5.78
26. C70A G77A C97A A121U  -5.66
27. A68U C123U  -5.66
28. C70A A108U C124A  -5.58
29. C70G C88G  -5.57
30. G69C C85A G117C A121C  -5.54
31. C70A C114U U125A  -5.48
32. C70G A105G  -5.16
33. G69C C72U U92C C101U G117U  -5.11
34. A68G C94A  -5.05
35. G69A C76A C123U  -5
36. C70G A74U  -4.98
37. C70G A103G  -4.93
38. A68U C124G  -4.93
39. C70G A84U C85U C104U  -4.81
40. A68G A74G C79A  -4.8
41. C70G A100C  -4.69
42. C70A U106C C114A  -4.64
43. A68U C124A  -4.62
44. G69A C89A  -4.54
45. C70G A100C C123A  -4.49
46. G69A C114A A121G U130G  -4.38
47. G69C U92A U133G  -4.36
48. G69A G71U  -4.27
49. C70A C72G  -4.19
50. G69C G93C G122A  -4.01
51. G69U C99A G127C  -3.98
52. G69C G117C  -3.97
53. G69U C99A U130G  -3.92
54. G69C C70U  -3.87
55. C70G A83G U112C  -3.8
56. G69C C99U  -3.79
57. C70G C85U  -3.79
58. A66U U116G  -3.73
59. G69A C101A  -3.72
60. G69C C85U C86A  -3.64
61. A68G U131A  -3.5
62. A68G C73U C124U G135U  -3.48
63. G69A U106C  -3.42
64. C70A A74U  -3.39
65. G69A C86U A111C  -3.32
66. G69U U81C G120C G122A G128A  -3.32
67. G69C C89G  -3.31
68. C70A G117A  -3.29
69. A68G U87G  -3.29
70. C70A C85A  -3.25
71. C70G A111G  -3.21
72. C70G C79U  -3.08
73. G69C G117U  -3.02
74. G69A C72U A111C U131A  -3.01
75. C70A U106C  -2.99
76. C70A G77C  -2.99
77. G69A C89U  -2.85
78. G69C C94U U96A  -2.83
79. G69A C115U  -2.83
80. G69U U109A  -2.79
81. G69U G117C U130C  -2.79
82. G69A U106A  -2.76
83. G69A U81C  -2.71
84. A66U G77A A95C  -2.7
85. G69A C88U  -2.7
86. G69C A84G A118U G127A  -2.68
87. G69C A90U  -2.68
88. C70A C86A G113A C123G  -2.59
89. G69A G122A  -2.53
90. G69A C82U  -2.48
91. C70A C102A U112C  -2.45
92. C70A A83U  -2.44
93. G69C U131A  -2.41
94. C70A C85U C88U G122U C124G  -2.37
95. G69U A75U C101U G113C U129A  -2.36
96. C70A C85U  -2.32
97. G69C A83G  -2.31
98. G69U G71U G117A  -2.19
99. G69A C101U  -2.16
100. G69A U87C  -2.12
101. G69A U87G  -2.08
102. G69C U132A  -2.03
103. G69U C102G A119G  -2.01
104. G69A C88A  -1.98
105. G69C U87A  -1.98
106. G69C U81C  -1.86
107. C70A C73U  -1.81
108. G69A C115A  -1.77
109. G69C C79U G117U U134G  -1.73
110. A68G A83C U96G U106A A121C  -1.7
111. G69A G113A A121U  -1.68
112. C70G A118U  -1.64
113. C70A A95G  -1.6
114. C70A C101U U106C  -1.6
115. C70A C82U A84C U87C U116A C123G U131C  -1.57
116. G69C A83G G120C  -1.54
117. A66U U130A  -1.42
118. G69C C86U  -1.37
119. G69U C72U U87A G113A  -1.35
120. C70A U131A  -1.34
121. G69U C72G  -1.29
122. A68G C124U  -1.26
123. G69C U106C  -1.22
124. G69U C98U U129C  -1.15
125. G69A C72U  -1.06
126. G69C A111C  -0.894
127. G69U A95U G122A  -0.876
128. G69U C82U A111C U112A G122C  -0.869
129. G69U C79U A111G U129C U133A  -0.673
130. G69U C73U G110A C123A  -0.661
131. G69U C114U  -0.582
132. G69U U129A  -0.546
133. G69C U112A  -0.545
134. C70A C123G  -0.534
135. G69U A74U G135C  -0.511
136. G69U G93U G110A  -0.494
137. G69U C89A  -0.471
138. G69U C101A  -0.434
139. G69U C79A C88G  -0.43
140. G69U A84U A90U  -0.387
141. G69C C73A G122A C124G  -0.387
142. G69U A95G G135U  -0.343
143. G69U C104U G127A  -0.309
144. G69U C86U  -0.254
145. G69C C123U  -0.24
146. G69U U109C  -0.222
147. G69U U131A  -0.175
148. G69U C72U C79U  -0.113
149. C70A C123U  -0.0495
150. G69U A74C C104U  0.0316
151. G69U A84C  0.129
152. A66U C124U  0.294
153. G69U U78C C88U  0.314
154. G69C C124G  0.351
155. G69U G122A  0.377
156. G69U U87C  0.421
157. G69U A119U  0.577
158. G69U C86G G120C  0.63
159. G69U A84U  0.757
160. G69U C80U C102U C104U G120C  1.02
161. G69U G120U U132C  1.03
162. G69U G135C  1.06
163. G69U U112G U125A  1.09
164. G69U A84C C124A  1.33
165. G69U C123G  2.28
166. G69U U78G U112A  2.31
167. G69U U78G U112A U133C  3.16
